From patent EP1441764B1 come the findings set out here.

The target of the experiment is C-RANKL protein (mouse RANKL fragment with N-terminal cysteine-containing linker GPGCGGG and hexahistidine tag) (mouse) (UniProt O35235). The experiment in a line: ELISA on plates coated with C-RANKL 10 ug/ml, serial dilutions of RANK-Fc, anti-Fc-HRP detection. In general terms: In an ELISA, binding on a coated surface is turned into a signal by an enzyme label.
Chain of UniProt O35235 (O35235 other isoform, or with tags, fused parts or gaps limits assumed, form in doubt): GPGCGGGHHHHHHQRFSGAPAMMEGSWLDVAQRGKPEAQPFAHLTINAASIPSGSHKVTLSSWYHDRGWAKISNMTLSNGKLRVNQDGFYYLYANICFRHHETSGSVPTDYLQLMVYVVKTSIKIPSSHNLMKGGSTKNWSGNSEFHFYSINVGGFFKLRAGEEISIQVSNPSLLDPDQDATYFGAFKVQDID

A word on the EC50: it is the concentration that produces a half-maximal response. High values mean weaker potency, low ones greater potency. The substance purified RANK-Fc fusion protein registered an EC50 of 1 to 3 nM.
